This note sets out measurements from patent US20260035450.

The target of the data set is T1, recombinant human ANGPTL3 (rhANGPTL3) (SEQ ID NO:1).
T1 chain: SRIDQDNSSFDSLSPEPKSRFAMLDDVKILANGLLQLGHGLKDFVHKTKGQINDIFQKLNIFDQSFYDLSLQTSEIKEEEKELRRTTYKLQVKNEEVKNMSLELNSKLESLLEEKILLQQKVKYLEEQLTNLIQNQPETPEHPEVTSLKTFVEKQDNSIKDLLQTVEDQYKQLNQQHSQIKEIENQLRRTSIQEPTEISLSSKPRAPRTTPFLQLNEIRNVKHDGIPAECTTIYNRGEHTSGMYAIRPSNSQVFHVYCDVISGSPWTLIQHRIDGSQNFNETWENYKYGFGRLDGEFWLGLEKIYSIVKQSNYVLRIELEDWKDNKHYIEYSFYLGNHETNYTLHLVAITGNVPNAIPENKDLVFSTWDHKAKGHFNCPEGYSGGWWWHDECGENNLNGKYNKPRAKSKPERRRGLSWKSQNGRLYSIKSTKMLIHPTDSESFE

B1: bovine LPL (protein)
chain: DRITGGKDFRDIESKFALRTPEDTAEDTCHLIPGVTESVANCHFNHSSKTFVVIHGWTVTGMYESWVPKLVAALYKREPDSNVIVVDWLSRAQQHYPVSAGYTKLVGQDVAKFMNWMADEFNYPLGNVHLLGYSLGAHAAGIAGSLTNKKVNRITGLDPAGPNFEYAEAPSRLSPDDADFVDVLHTFTRGSPGRSIGIQKPVGHVDIYPNGGTFQPGCNIGEALRVIAERGLGDVDQLVKCSHERSVHLFIDSLLNEENPSKAYRCNSKEAFEKGLCLSCRKNRCNNMGYEINKVRAKRSSKMYLKTRSQMPYKVFHYQVKIHFSGTESNTYTNQAFEISLYGTVAESENIPFTLPEVSTNKTYSFLLYTEVDIGELLMLKLKWISDSYFSWSNWWSSPGFDIGKIRVKAGETQKKVIFCSREKMSYLQKGKSPVIFVKCHDKSLNRKSG
Consider B1, for which the “in vitro enzymatic activity of lipoprotein lipase (LPL), EnzChek Lipase substrate” value is “The activity of bovine LPL is inhibited by addition of recombinant hANGPTL3 (rhANGPTL3)”.
